One molecule from publication doi:10.1101/2023.03.31.534734 (bioRxiv, 2023) can be followed below.

This test concerns the target recombinant, non-biotinylated HLA-A*01:01 (α-chain, β2m, peptide […]) (Homo sapiens, HLA-A*01:01; peptide from …, strain). Put plainly: crystal structure.

B1: Fab of rmAb E07 (Fab, V domains shown)
VH: QVQLQESGGGVVQPGGSLRLSCAASGFNFSNYGMHWVRQTPGKGLEWVASIPYDGSHQWHADSVKGRFTISRDNSKNTLYLQINSLRPEDTAMYYCSKARISYLSAPAWWFDPWGQGTLVTVSS
VL: QSVSTQPPSVSVAPGQTARITCGGNNIGSKSVHWYRQKPGQAPVLVVYDNNARPSGIPERISGSNFANTATLTISRVEAGDEADYYCHVWDSSSDHVVFGGGTKLTVL
Turning to B1, the binding result is reported as “binds”.
